For experiment [1], the target named is His-HBx expressed alone (detergent solubilized) (hepatitis B virus (genotype D)) (UniProt P03165). As to the kind of experiment: AlphaScreen or HTRF; TR-FRET competition; 5 nM His-HBx and 5 nM GST-DDB1 expressed separately, preincubated with increasing untagged competitor 30 min at room temperature; Eu-cryptate anti-His and d2 anti-GST antibodies; 25 mM HEPES pH 7.2, 400 mM NaCl, 0.1 mg/ml BSA, 0.01% Brij-35, 0.5 mM TCEP. For orientation: Alpha assays give light when donor and acceptor beads are brought close together.

Experiment [2] has as its target His-HBx coexpressed with GST-DDB1 (hepatitis B virus (genotype D)) (UniProt P03165). Kind of experiment: AlphaScreen or HTRF; TR-FRET competition; 3 nM coexpressed His-HBx:GST-DDB1 complex preincubated with increasing untagged competitor 1 h at room temperature; Eu-cryptate anti-His and d2 anti-GST antibodies; 20 mM HEPES pH 7.2, 50 mM NaCl, 0.1 mg/ml BSA, 0.01% Brij-35, 0.5 mM TCEP.

The target in experiment [3] is GST-DDB1 (UniProt Q16531). The description is as above.
A further experiment has as its target DDB1 (UniProt Q16531). As to the kind of experiment: AUC; sedimentation velocity at 20 C, absorbance at 280 nm, c(s) distribution (SEDFIT), each protein in its final storage buffer.
For experiment [4], the target named is GST-DDB1 (UniProt Q16531). Kind of experiment: AlphaScreen or HTRF; TR-FRET competition; 5 nM His-HBx and 5 nM GST-DDB1 expressed separately, preincubated with increasing untagged competitor 30 min at room temperature; Eu-cryptate anti-His and d2 anti-GST antibodies; 25 mM HEPES pH 7.2, 400 mM NaCl, 0.1 mg/ml BSA, 0.01% Brij-35, 0.5 mM TCEP.
Experiment [5] concerns the target T1, GST-DDB1 (UniProt Q16531 1-1140).
T1 construct: also called glutathione S-transferase (GST)-DDB1; not shown: GST, N-terminal, kept
The experiment is described as above. To be noted: both partners purified.

Experiment [6] has as its target T1, GST-DDB1. Kind of experiment: AlphaScreen or HTRF; TR-FRET competition; 3 nM coexpressed His-HBx:GST-DDB1 complex preincubated with increasing untagged competitor 1 h at room temperature; Eu-cryptate anti-His and d2 anti-GST antibodies; 20 mM HEPES pH 7.2, 50 mM NaCl, 0.1 mg/ml BSA, 0.01% Brij-35, 0.5 mM TCEP. To be noted: both partners purified.

Consider “DDB1 (from UniProt Q16531 1-1140) (natural protein)”, for which the half-inhibitory concentration (IC50) in experiment [1] worked out at 204 nM; in experiment [2], 16 nM.

Regarding “HBx H-box peptide (R96E mutant) (from UniProt P03165 88-102) (peptide; other documents disagree on this pair)”, in the experiment with GST-DDB1 [3], the IC50 is more than 100000 nM.

As to “HBx coexpressed with DDB1 (HBx:DDB1 coexpressed complex) (from UniProt P03165 1-154) (natural protein)”, the stoichiometry N with DDB1 came out at 1.

With “recombinant untagged HBx (from UniProt P03165 1-154) (natural protein)”, the IC50 with GST-DDB1 [4] is 61 nM; in the experiment with GST-DDB1 [3], 9 nM.

ILPKVLHKRTLGLSA [HBx H-box peptide (wild type)]: the values for the half-inhibitory concentration (IC50) with GST-DDB1 [5] and with GST-DDB1 [6] were 5000 nM and 1560 nM, respectively.

B1: SV5-V (natural protein)
chain: MDPTDLSFSPDEINKLIETGLNTVEYFTSQQVTGTSSLGKNTIPPGVTGLLTNAAEAKIQESTNHQKGSVGGGAKPKKPRPKIAIVPADDKTVPGKPIPNPLLGLDSTPSTQTVLDLSGKTLPSGSYKGVKLAKFGKENLMTRFIEEPRENPIATSSPIDFKRGRDTGGFHRREYSIGWVGDEVKVTEWCNPSCSPITAAARRFECTCHQCPVTCSECERDT
notes: also called V protein of paramyxovirus SV5; source: E. coli Rosetta, purified (glutathione agarose, thrombin cleavage, MonoQ, Superdex 75); not shown: GST, N-terminal, cleaved
As to B1, the IC50 with GST-DDB1 [5] was 7 nM; with GST-DDB1 [6], 4 nM.

As a reminder, the IC50 is the concentration that gives 50% inhibition. A high value points to a need for much substance. As a reminder, the stoichiometry N is a count of units in the complex or per binding partner.

For the origin of these results see article PMC6675892, “Hepatitis B Virus X Protein Function Requires Zinc Binding” (Journal of Virology, 2019).
